From PMC2719355 (The Journal of Biological Chemistry, 2009)

Molecular target: the molecule itself
Assay: mass spectrometry

B1: recombinant full-length human butyrylcholinesterase, usual form (rBChE-U) (enzyme)
chain: EDDIIIATKNGKVRGMNLTVFGGTVTAFLGIPYAQPPLGRLRFKKPQSLTKWSDIWNATKYANSCCQNIDQSFPGFHGSEMWNPNTDLSEDCLYLNVWIPAPKPKNATVLIWIYGGGFQTGTSSLHVYDGKFLARVERVIVVSMNYRVGALGFLALPGNPEAPGNMGLFDQQLALQWVQKNIAAFGGNPKSVTLFGESAGAASVSLHLLSPGSHSLFTRAILQSGSFNAPWAVTSLYEARNRTLNLAKLTGCSRENETEIIKCLRNKDPQEILLNEAFVVPYGTPLSVNFGPTVDGDFLTDMPDILLELGQFKKTQILVGVNKDEGTAFLVYGAPGFSKDNNSIITRKEFQEGLKIFFPGVSEFGKESILFHYTDWVDDQRPENYREALGDVVGDYNFICPALEFTKKFSEWGNNAFFYYFEHRSSKLPWPEWMGVMHGYEIEFVFGLPLERRDNYTKAEEILSRSIVKRWANFAKYGNPNETQNNSTSWPVFKSTEQKYLTLNTESTRIMTKLRAQQCRFWTSFFPKVLEMTGNIDEAEWEWKAGFHRWNNYMMDWKNQFNDYTSKKESCVGL
stoichiometry N: 2
